Measured values taken from PMC9482650, “Quantitative fragmentomics allow affinity mapping of interactomes” (Nature Communications, 2022).

T1: HTRA3, P83110
T1 sequence (P83110 354-453, limits assumed, looked up): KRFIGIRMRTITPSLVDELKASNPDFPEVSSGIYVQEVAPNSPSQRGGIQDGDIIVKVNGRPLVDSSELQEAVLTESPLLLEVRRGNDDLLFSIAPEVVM

T2: GRIP1_2, Q9Y3R0
T2 sequence (Q9Y3R0 145-248, limits assumed, looked up): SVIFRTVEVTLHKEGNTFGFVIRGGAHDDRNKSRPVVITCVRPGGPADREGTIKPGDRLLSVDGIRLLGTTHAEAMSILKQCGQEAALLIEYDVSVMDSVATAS

T3: PTPN13_1, Q12923
T3 sequence (Q12923 1088-1188, limits assumed, looked up): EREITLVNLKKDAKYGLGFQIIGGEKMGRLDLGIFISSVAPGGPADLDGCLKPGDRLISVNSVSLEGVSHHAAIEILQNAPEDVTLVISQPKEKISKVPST

T4: SYNJ2BP, P57105
T4 sequence (P57105 8-110, limits assumed, looked up): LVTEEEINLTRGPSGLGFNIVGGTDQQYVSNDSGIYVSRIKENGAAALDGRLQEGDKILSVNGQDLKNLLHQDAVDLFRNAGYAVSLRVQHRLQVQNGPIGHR

T5: LIN7B, Q9HAP6
T5 sequence (Q9HAP6 88-185, limits assumed, looked up): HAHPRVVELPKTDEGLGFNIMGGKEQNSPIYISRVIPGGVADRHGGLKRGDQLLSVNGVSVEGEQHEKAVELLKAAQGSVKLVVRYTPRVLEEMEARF

T6: PARD3B_1, Q8TEW8
T6 sequence (Q8TEW8 196-299, limits assumed, looked up): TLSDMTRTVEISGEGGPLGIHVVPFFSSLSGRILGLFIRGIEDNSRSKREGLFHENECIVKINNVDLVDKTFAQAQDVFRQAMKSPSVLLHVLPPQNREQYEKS

T7: RHPN1, Q8TCX5
T7 sequence (Q8TCX5 508-602, limits assumed, looked up): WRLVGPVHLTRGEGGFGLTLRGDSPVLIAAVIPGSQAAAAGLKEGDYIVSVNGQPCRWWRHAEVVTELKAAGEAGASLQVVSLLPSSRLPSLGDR

T8: MPDZ_10, O75970
T8 sequence (O75970 1624-1722, limits assumed, looked up): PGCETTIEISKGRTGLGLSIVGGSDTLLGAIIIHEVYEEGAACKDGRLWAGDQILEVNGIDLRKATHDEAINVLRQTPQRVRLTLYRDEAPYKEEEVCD

T9: DFNB31_1, Q9P202
T9 sequence (Q9P202 135-233, limits assumed, looked up): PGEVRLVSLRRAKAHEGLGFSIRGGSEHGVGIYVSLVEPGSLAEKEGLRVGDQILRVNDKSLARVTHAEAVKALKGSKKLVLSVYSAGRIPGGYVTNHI

T10: DLG3_1, Q92796
T10 sequence (Q92796 125-227, limits assumed, looked up): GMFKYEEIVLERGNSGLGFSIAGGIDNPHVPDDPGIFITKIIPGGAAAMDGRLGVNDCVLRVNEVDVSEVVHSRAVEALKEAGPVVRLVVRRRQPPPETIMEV

T11: GRIP1_4, Q9Y3R0
T11 sequence (Q9Y3R0 467-571, limits assumed, looked up): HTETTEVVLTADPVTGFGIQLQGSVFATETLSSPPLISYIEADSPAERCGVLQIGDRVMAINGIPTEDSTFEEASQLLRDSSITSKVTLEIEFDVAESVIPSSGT

T12: DLG3_2, Q92796
T12 sequence (Q92796 221-321, limits assumed, looked up): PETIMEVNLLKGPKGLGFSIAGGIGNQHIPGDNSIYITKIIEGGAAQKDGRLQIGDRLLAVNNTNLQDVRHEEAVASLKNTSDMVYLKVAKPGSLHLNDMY

B1: TRPV3, Q8NET8 (peptide)
chain: EVEEFPETSV
B2: CLDN1, O95832 (peptide)
chain: PAPSSGKDYV
B3: RASL11B, Q9BPW5 (peptide)
chain: SAKVRTVTSV

Target: Inadl_10, Q8NI35
Sequence (Q8NI35 1673-1763): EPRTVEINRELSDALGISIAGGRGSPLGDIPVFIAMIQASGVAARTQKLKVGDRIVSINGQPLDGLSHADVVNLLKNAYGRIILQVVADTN
Assay: holdup assay
Design: key: below the threshold = too weak to quantify, mostly under pKd 3.1 to 4
Conditions: plain residues with an end cap or a label only (N-terminal biotin on a linker: ado-ado)

| Binder | pKd |
| --- | --- |
| B1 | below the threshold |
| B2 | below the threshold |
| B3 | below the threshold |

Target: TJP1_3, Q07157
Sequence (Q07157 416-512): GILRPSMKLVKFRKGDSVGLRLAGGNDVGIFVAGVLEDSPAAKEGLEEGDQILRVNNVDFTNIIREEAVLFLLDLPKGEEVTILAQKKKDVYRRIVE
Assay: holdup assay
Design: key: below the threshold = too weak to quantify, mostly under pKd 3.1 to 4
Conditions: plain residues with an end cap or a label only (N-terminal biotin on a linker: ado-ado)

| Binder | pKd |
| --- | --- |
| B1 | 3.5 |
| B2 | below the threshold |
| B3 | below the threshold |

Target: Inadl_9, Q8NI35
Sequence (Q8NI35 1530-1615): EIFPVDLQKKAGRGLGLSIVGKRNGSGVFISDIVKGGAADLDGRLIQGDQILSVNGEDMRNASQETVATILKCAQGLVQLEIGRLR
Assay: holdup assay
Design: key: below the threshold = too weak to quantify, mostly under pKd 3.1 to 4
Conditions: plain residues with an end cap or a label only (N-terminal biotin on a linker: ado-ado)

| Binder | pKd |
| --- | --- |
| B1 | 3.93 |
| B2 | 3.61 |
| B3 | below the threshold |

Target: T1, HTRA3, P83110
Assay: holdup assay
Design: key: below the threshold = too weak to quantify, mostly under pKd 3.1 to 4
Conditions: plain residues with an end cap or a label only (N-terminal biotin on a linker: ado-ado)

| Binder | pKd |
| --- | --- |
| B1 | below the threshold |
| B2 | 3.95 |
| B3 | below the threshold |

Target: T2, GRIP1_2, Q9Y3R0
Assay: holdup assay
Design: key: below the threshold = too weak to quantify, mostly under pKd 3.1 to 4
Conditions: plain residues with an end cap or a label only (N-terminal biotin on a linker: ado-ado)

| Binder | pKd |
| --- | --- |
| B1 | 3.59 |
| B2 | below the threshold |
| B3 | below the threshold |

Target: T3, PTPN13_1, Q12923
Assay: holdup assay
Design: key: below the threshold = too weak to quantify, mostly under pKd 3.1 to 4
Conditions: plain residues with an end cap or a label only (N-terminal biotin on a linker: ado-ado)

| Binder | pKd |
| --- | --- |
| B1 | 3.58 |
| B2 | below the threshold |
| B3 | below the threshold |

Target: T4, SYNJ2BP, P57105
Assay: holdup assay
Design: key: below the threshold = too weak to quantify, mostly under pKd 3.1 to 4
Conditions: plain residues with an end cap or a label only (N-terminal biotin on a linker: ado-ado)

| Binder | pKd |
| --- | --- |
| B1 | 5.2 |
| B2 | below the threshold |
| B3 | 4.95 |

Target: T5, LIN7B, Q9HAP6
Assay: holdup assay
Design: key: below the threshold = too weak to quantify, mostly under pKd 3.1 to 4
Conditions: plain residues with an end cap or a label only (N-terminal biotin on a linker: ado-ado)

| Binder | pKd |
| --- | --- |
| B1 | 4.3 |
| B2 | below the threshold |
| B3 | below the threshold |

Target: DLG1_3, Q12959
Sequence (Q12959 457-571): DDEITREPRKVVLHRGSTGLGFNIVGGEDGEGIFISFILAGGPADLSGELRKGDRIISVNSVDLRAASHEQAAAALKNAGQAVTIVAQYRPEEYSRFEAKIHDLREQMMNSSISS
Assay: holdup assay
Design: key: below the threshold = too weak to quantify, mostly under pKd 3.1 to 4
Conditions: plain residues with an end cap or a label only (N-terminal biotin on a linker: ado-ado)

| Binder | pKd |
| --- | --- |
| B1 | 4.64 |
| B2 | below the threshold |
| B3 | 4.54 |

Target: NOS1, P29475
Sequence (P29475 9-101): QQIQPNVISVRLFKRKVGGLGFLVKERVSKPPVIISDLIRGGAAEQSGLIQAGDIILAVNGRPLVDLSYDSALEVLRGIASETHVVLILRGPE
Assay: holdup assay
Design: key: below the threshold = too weak to quantify, mostly under pKd 3.1 to 4
Conditions: plain residues with an end cap or a label only (N-terminal biotin on a linker: ado-ado)

| Binder | pKd |
| --- | --- |
| B1 | 4.12 |
| B2 | 4.06 |
| B3 | 3.9 |

Target: T6, PARD3B_1, Q8TEW8
Assay: holdup assay
Design: key: below the threshold = too weak to quantify, mostly under pKd 3.1 to 4
Conditions: plain residues with an end cap or a label only (N-terminal biotin on a linker: ado-ado)

| Binder | pKd |
| --- | --- |
| B1 | below the threshold |
| B2 | below the threshold |
| B3 | below the threshold |

Target: LAP2, Q96RT1
Sequence (Q96RT1 other isoform, or with tags, fused parts or gaps): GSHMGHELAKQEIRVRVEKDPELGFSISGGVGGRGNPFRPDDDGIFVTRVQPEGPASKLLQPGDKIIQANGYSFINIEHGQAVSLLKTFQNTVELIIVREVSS
Assay: holdup assay
Design: key: below the threshold = too weak to quantify, mostly under pKd 3.1 to 4
Conditions: plain residues with an end cap or a label only (N-terminal biotin on a linker: ado-ado)

| Binder | pKd |
| --- | --- |
| B1 | 4.93 |
| B2 | below the threshold |
| B3 | 3.66 |

Target: NHERF4_4, Q86UT5
Sequence (Q86UT5 464-550): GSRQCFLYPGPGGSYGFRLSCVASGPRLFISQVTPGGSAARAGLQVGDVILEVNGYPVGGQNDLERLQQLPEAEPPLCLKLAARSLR
Assay: holdup assay
Design: key: below the threshold = too weak to quantify, mostly under pKd 3.1 to 4
Conditions: plain residues with an end cap or a label only (N-terminal biotin on a linker: ado-ado)

| Binder | pKd |
| --- | --- |
| B1 | below the threshold |
| B2 | below the threshold |
| B3 | 3.91 |

Target: Inadl_5, Q8NI35
Sequence (Q8NI35 673-780): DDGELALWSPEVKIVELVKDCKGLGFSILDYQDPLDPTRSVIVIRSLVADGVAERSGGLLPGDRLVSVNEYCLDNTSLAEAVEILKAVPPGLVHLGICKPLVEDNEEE
Assay: holdup assay
Design: key: below the threshold = too weak to quantify, mostly under pKd 3.1 to 4
Conditions: plain residues with an end cap or a label only (N-terminal biotin on a linker: ado-ado)

| Binder | pKd |
| --- | --- |
| B1 | 3.56 |
| B2 | below the threshold |
| B3 | below the threshold |

Target: T7, RHPN1, Q8TCX5
Assay: holdup assay
Design: key: below the threshold = too weak to quantify, mostly under pKd 3.1 to 4
Conditions: plain residues with an end cap or a label only (N-terminal biotin on a linker: ado-ado)

| Binder | pKd |
| --- | --- |
| B1 | 4.68 |
| B2 | below the threshold |
| B3 | 3.83 |

Target: T8, MPDZ_10, O75970
Assay: holdup assay
Design: key: below the threshold = too weak to quantify, mostly under pKd 3.1 to 4
Conditions: plain residues with an end cap or a label only (N-terminal biotin on a linker: ado-ado)

| Binder | pKd |
| --- | --- |
| B1 | 3.56 |
| B2 | below the threshold |
| B3 | below the threshold |

Target: T9, DFNB31_1, Q9P202
Assay: holdup assay
Design: key: below the threshold = too weak to quantify, mostly under pKd 3.1 to 4
Conditions: plain residues with an end cap or a label only (N-terminal biotin on a linker: ado-ado)

| Binder | pKd |
| --- | --- |
| B1 | 4.86 |
| B2 | below the threshold |
| B3 | 3.77 |

Target: TJP2_1, Q9UDY2
Sequence (Q9UDY2 24-128): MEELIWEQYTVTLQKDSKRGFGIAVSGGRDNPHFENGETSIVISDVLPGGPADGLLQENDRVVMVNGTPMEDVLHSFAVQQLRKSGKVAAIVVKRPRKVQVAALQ
Assay: holdup assay
Design: key: below the threshold = too weak to quantify, mostly under pKd 3.1 to 4
Conditions: plain residues with an end cap or a label only (N-terminal biotin on a linker: ado-ado)

| Binder | pKd |
| --- | --- |
| B1 | below the threshold |
| B2 | 3.71 |
| B3 | 4.14 |

Target: GORASP2, Q9H8Y8
Assay: holdup assay
Design: key: below the threshold = too weak to quantify, mostly under pKd 3.1 to 4
Conditions: plain residues with an end cap or a label only (N-terminal biotin on a linker: ado-ado)

| Binder | pKd |
| --- | --- |
| B1 | 3.51 |
| B2 | 3.67 |
| B3 | 4.56 |

Target: IL16_1, Q14005
Sequence (Q14005 210-306): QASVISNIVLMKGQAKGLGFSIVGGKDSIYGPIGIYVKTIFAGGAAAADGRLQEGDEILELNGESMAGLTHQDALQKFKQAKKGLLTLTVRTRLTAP
Assay: holdup assay
Design: key: below the threshold = too weak to quantify, mostly under pKd 3.1 to 4
Conditions: plain residues with an end cap or a label only (N-terminal biotin on a linker: ado-ado)

| Binder | pKd |
| --- | --- |
| B1 | 4.17 |
| B2 | below the threshold |
| B3 | below the threshold |

Target: T10, DLG3_1, Q92796
Assay: holdup assay
Design: key: below the threshold = too weak to quantify, mostly under pKd 3.1 to 4
Conditions: plain residues with an end cap or a label only (N-terminal biotin on a linker: ado-ado)

| Binder | pKd |
| --- | --- |
| B1 | 3.87 |
| B2 | below the threshold |
| B3 | 3.84 |

Target: T11, GRIP1_4, Q9Y3R0
Assay: holdup assay
Design: key: below the threshold = too weak to quantify, mostly under pKd 3.1 to 4
Conditions: plain residues with an end cap or a label only (N-terminal biotin on a linker: ado-ado)

| Binder | pKd |
| --- | --- |
| B1 | 3.47 |
| B2 | below the threshold |
| B3 | below the threshold |

Target: T12, DLG3_2, Q92796
Assay: holdup assay
Design: key: below the threshold = too weak to quantify, mostly under pKd 3.1 to 4
Conditions: plain residues with an end cap or a label only (N-terminal biotin on a linker: ado-ado)

| Binder | pKd |
| --- | --- |
| B1 | 4.22 |
| B2 | below the threshold |
| B3 | 4.78 |

Target: HTRA1, Q92743
Sequence (Q92743 360-477): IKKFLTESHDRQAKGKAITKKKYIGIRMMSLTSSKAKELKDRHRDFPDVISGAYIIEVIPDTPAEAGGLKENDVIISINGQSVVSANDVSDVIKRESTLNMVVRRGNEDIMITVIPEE
Assay: holdup assay
Design: key: below the threshold = too weak to quantify, mostly under pKd 3.1 to 4
Conditions: plain residues with an end cap or a label only (N-terminal biotin on a linker: ado-ado)

| Binder | pKd |
| --- | --- |
| B1 | 4.16 |
| B2 | 3.94 |
| B3 | 3.95 |

Target: DLG4_1, P78352
Sequence (P78352 62-152): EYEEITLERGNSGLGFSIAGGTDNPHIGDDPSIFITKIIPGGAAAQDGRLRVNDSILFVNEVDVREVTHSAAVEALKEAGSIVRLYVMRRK
Assay: holdup assay
Design: key: below the threshold = too weak to quantify, mostly under pKd 3.1 to 4
Conditions: plain residues with an end cap or a label only (N-terminal biotin on a linker: ado-ado)

| Binder | pKd |
| --- | --- |
| B1 | 4.36 |
| B2 | 3.6 |
| B3 | 4.65 |
